Measured values as given in publication PMC3173608 (Structure(London, England:1993), 2011).

Target: the molecule itself
Experiment: SEC

B1: CsgG_(16-277) (domain or fragment)
chain: CLTAPPKEAARPTLMPRAQSYKDLTHLPAPTGKIFVSVYNIQDETGQFKPYPASNFSTAVPQSATAMLVTALKDSRWFIPLERQGLQNLLNERKIIRAAQENGTVAINNRIPLQSLTAANIMVEGSIIGYESNVKSGGVGARYFGIGADTQYQLDQIAVNLRVVNVSTGEILSSVNTSKTILSYEVQAGVFRFIDYQRLLEGEVGYTSNEPVMLCLMSAIETGVIFLINDGIDRGLWDLQNKAERQNDILVKYRHMSVPPES
- stoichiometry N: 8 protomers
